Experimental data published in publication PMC3741231.

Assays:
[1] = molecular target: human wild type PCSK9-V5 (prosegment≡PCSK9 complex) in conditioned medium (human) (UniProt Q8NBP7)
[2] = molecular target: PCSK9 Δ33-58 D374Y-V5 (human) (UniProt Q8NBP7)
[3] = molecular target: human wild type PCSK9-V5 (prosegment≡PCSK9 complex) in conditioned medium (human) (UniProt Q8NBP7); remark: listed apart in the source
[4] = molecular target: PCSK9 D374Y-V5 (gain-of-function natural mutant) (human) (UniProt Q8NBP7)
[5] = molecular target: PCSK9 Δ33-58-V5 (lacking the acidic N-terminal region of the prosegment) (human) (UniProt Q8NBP7)
[6] = molecular target: human wild type PCSK9-V5 (prosegment≡PCSK9 complex) in conditioned medium (human) (UniProt Q8NBP7); remark: listed apart in the source

reduction by Fcpro (3 µg/ml, pre-incubated with 1 µg/ml PCSK9, both in HEK293 conditioned media) of the LDLR degradation induced by extracellular PCSK9 in HepG2/shPCSK9 cells, 4 h at 37°C [1] [%] | total LDLR level (normalised to β-actin) in HepG2/shPCSK9 cells co-expressing Fcpro and PCSK9 Δ33-58 D374Y, against 0.08 with Δ33-58 D374Y alone (relative LDLR level) [2] | fold increase of total LDLR on co-expression of Fcpro with wild type PCSK9 in HepG2/shPCSK9 cells [3] [fold] | total LDLR level (normalised to β-actin) in HepG2/shPCSK9 cells co-expressing Fcpro and PCSK9 D374Y, against 0.1 with D374Y alone (relative LDLR level) [4] | fold increase of total LDLR on co-expression of Fcpro with PCSK9 Δ33-58 in HepG2/shPCSK9 cells [5] [fold] | reversal by co-expressed Fcpro (DNA ratio PCSK9:Fcpro 1:3; ratios up to 1:9 gave no more) of the ∼44% LDLR degradation induced by PCSK9; total LDLR by Western blot of cell lysates [6] [%] | Substance
60 |  |  |  |  |  | Fcpro (Fc of human IgG1, hinge of human IgG1 and PCSK9 prosegment aa 31-152) (from UniProt Q8NBP7 31-152) (Fc fusion)
 | 0.31 | 1.4 | 0.44 | 1.4 | 75 | Fcpro expressed in HepG2/shPCSK9 cells (from UniProt Q8NBP7 31-152) (Fc fusion)
